Measurements reported in patent publication US20240124545A1, “COMPOSITIONS AND METHODS RELATING TO THE TREATMENT OF DISEASES” (ILC THERAPEUTICS LIMITED, priority 2021, published 2024).
Where “and” joins values, the source holds several entries; their conditions need not be identical. Equal values may be shown once. Read-outs that look alike come from different tables or passages of the source.

Key:
HEp-2 cells [1] = experiment: XTT viability (cytotoxicity) assay, uninfected HEp-2 cells; conditions: 1 μM; 72 hours
HeLa-CD4-βgal cells [2] = experiment: XTT viability (cytotoxicity) assay, uninfected HeLa-CD4-βgal cells (Experiment 5); conditions: 10 μM
HeLa-CD4-βgal cells [3] = test system: HeLa-CD4-βgal cells
HeLa-CD4-βgal cells [4] = experiment: XTT viability (cytotoxicity) assay, uninfected HeLa-CD4-βgal cells (Experiment 4); conditions: 1 μM; 48 hours
IL 17F = experiment: Suppression of IL-17F; format: cell-based; conditions: listed as Hybrid 2
HIV-1 LAI [5] = experiment: HIV-1 LAI infectivity assay with β-galactosidase readout (Experiment 5); format: cell-based, human immunodeficiency virus type 1 (HIV-1) LAI strain; conditions: for HIV-1 Infectivity in HeLa-CD4-βgal cells (% vehicle): mean of duplicates; for HIV Infectivity in HeLa CD4 βgal cells (β-galactosidase units): individual values
HIV-1 LAI [6] = conditions: for HIV Infectivity in HeLa-CD4-βgal cells (% vehicle): 48 hours
SARS-CoV-1 [7] = format: cell-based, SARS-HCoV2003VA2774; conditions: Vero E6 cells
SARS-CoV-1 [8] = format: cell-based
HRSV Long strain = experiment: HRSV infectivity assay, immunostaining readout in HEp-2 cells; format: cell-based, human respiratory syncytial virus (HRSV) Long strain; conditions: for HRSV Infectivity in HEp-2 cells (% vehicle): 72 hours, average of duplicates; for HRSV Infectivity in HEp-2 cells - Raw OD- Absorbance (490 nm): duplicate A490 values
HEp-2 cells [9] = test system: HEp-2 cells
HeLa-CD4-βgal cells [10] = test system: HeLa-CD4-βgal cells; remark: listed apart in the source
natural killer cells = experiment: NK cell monoculture model (cell clustering); format: cell-based
human RSV = experiment: Plaque assay with human RSV (FIG. 9); format: cell-based
[11] = test system: Herpes Simplex Virus Type 1 (HSV1); experiment: HSV1 infection of primary human keratinocytes; format: cell-based
IL-17A = experiment: Suppression of IL-17A synthesis; format: cell-based
[12] = test system: SK-OV-3 NucLight Red cells co-cultured with natural killer (NK) cells; experiment: Live cell imaging assay of immune cell killing (IncuCyte ZOOM); format: cell-based
Protocol: The effect of a hybrid recombinant interferon was tested in a live cell imaging assay of immune cell killing on an IncuCyte ZOOM platform. SK-OV-3 ovarian cancer cells with red labelled nuclei (SK-OV-3 NucLight Red) were used as target cells in the study. For immune cell killing, the cells were co-cultured with natural killer (NK) cells and positive controls consisted of cells treated with IL-2 and IL-12. Apoptosis was detected by staining caspase 3/7 positive objects while cell number was determined by counting of red nuclei. […] An initial optimisation experiment was carried out that tested 4 ratios of target and effector cells. […] Results were compared to no treatment controls, vehicle treated controls and IL-2/IL-12 treated cells. All conditions were tested using cells in co-culture (SK-OV-3 NucLight and NK cells) and mono-culture (SK-OV-3 NucLight Red). Cells were monitored for 4 days using an IncuCyte ZOOM, and IncuCyte software was used to measure green (apoptosis) and red (cell number) object count over time. Area under the curve (AUC) analysis was used to quantitate apoptosis and cell number over the time course.

CC[C@H]1CN2CCc3cc(OC)c(OC)cc3[C@@H]2C[C@@H]1C[C@H]1NCCc2cc(OC)c(OC)cc21 [Emetine]
HEp-2 viability in the XTT assay (percentage values), controls (HEp-2 cells [1]): 6.8 ± 1.1 % vehicle
Viability of Uninfected HeLa-CD4-β gal Cells (% vehicle alone), controls (HeLa-CD4-βgal cells [2]; 48 hours): 5.6 ± 0.7 % vehicle alone
Viability (A490), controls, HeLa-CD4-βgal cells (HeLa-CD4-βgal cells [2]; raw absorbance 490 nm): 0.213 and 0.203
inhibition by viability control in XTT cytotoxicity assays (HeLa-CD4-βgal cells [3]; human): greater than 85%
inhibition of cell viability by cytotoxic compound control (HeLa-CD4-βgal cells [3]; human): greater than 90%
Viability of HeLa-CD4-βgal cells in the XTT assay (percentage values), controls (HeLa-CD4-βgal cells [4]): 10.0 ± 1.7%

B1: Sample B: recombinant IFN-α10-IFN-α14 hybrid interferon alpha, amino acid sequence SEQ ID NO:3; sample B in Experiments 4 and 5 (protein)
chain: CDLPQTHSLGNRRALILLGQMGRISPFSCLKDRHDFRIPQEEFDGNQFQKAQAISVLHEMMQQTFNLFSTKNSSAAWDETLLEKFYIELFQQMNDLEACVIQEVGVEETPLMNEDSILAVKKYFQRITLYLIERKYSPCAWEVVRAEIMRSLSFSTNLQKRLRRKD
suppression of IL 17F (IL 17F): inhibits both 17 A and F very strongly
HIV-1 Infectivity in HeLa-CD4-βgal cells (% vehicle) (HIV-1 LAI [5]; 0.0001 ng/mL, 48 hours): 102.4 % vehicle
HIV Infectivity in HeLa CD4 βgal cells (β-galactosidase units) (HIV-1 LAI [5]; 0.0001 ng/mL): 971,384 RLU and 1,112,752 RLU
HIV-1 Infectivity in HeLa-CD4-βgal cells (% vehicle) (HIV-1 LAI [5]; 0.001 ng/mL, 48 hours): 96.3 % vehicle
HIV Infectivity in HeLa CD4 βgal cells (β-galactosidase units) (HIV-1 LAI [5]; 0.001 ng/mL): 1,062,736 RLU and 896,209 RLU
HIV-1 Infectivity in HeLa-CD4-βgal cells (% vehicle) (HIV-1 LAI [5]; 0.01 ng/mL, 48 hours): 77.7 % vehicle
HIV Infectivity in HeLa CD4 βgal cells (β-galactosidase units) (HIV-1 LAI [5]; 0.01 ng/mL): 761,455 RLU and 820,758 RLU
HIV-1 Infectivity in HeLa-CD4-βgal cells (% vehicle) (HIV-1 LAI [5]; 0.1 ng/mL, 48 hours): 58.0 % vehicle
HIV Infectivity in HeLa CD4 βgal cells (β-galactosidase units) (HIV-1 LAI [5]; 0.1 ng/mL): 588,618 RLU and 595,007 RLU
HIV-1 Infectivity in HeLa-CD4-βgal cells (% vehicle) (HIV-1 LAI [5]; 1 ng/mL, 48 hours): 36.0 % vehicle
HIV Infectivity in HeLa CD4 βgal cells (β-galactosidase units) (HIV-1 LAI [5]; 1.0 ng/mL): 343,482 RLU and 394,833 RLU
HIV-1 Infectivity in HeLa-CD4-βgal cells (% vehicle) (HIV-1 LAI [5]; 10 ng/mL, 48 hours): 30.2 % vehicle
HIV Infectivity in HeLa CD4 βgal cells (β-galactosidase units) (HIV-1 LAI [5]; 10 ng/mL): 302,405 RLU and 317,823 RLU
HIV-1 Infectivity in HeLa-CD4-βgal cells (% vehicle) (HIV-1 LAI [5]; 100 ng/mL, 48 hours): 28.9 % vehicle
HIV Infectivity in HeLa CD4 βgal cells (β-galactosidase units) (HIV-1 LAI [5]; 100 ng/mL): 278,916 RLU and 314,495 RLU
HIV-1 Infectivity in HeLa-CD4-βgal cells (% vehicle) (HIV-1 LAI [5]; 1,000 ng/mL, 48 hours): 30.7 % vehicle
HIV Infectivity in HeLa CD4 βgal cells (β-galactosidase units) (HIV-1 LAI [5]; 1,000 ng/mL): 299,975 RLU and 330,705 RLU
HIV-1 Infectivity in HeLa-CD4-βgal cells (% vehicle) (HIV-1 LAI [5]; 10,000 ng/mL, 48 hours): 31.5 % vehicle
HIV Infectivity in HeLa CD4 βgal cells (β-galactosidase units) (HIV-1 LAI [5]; 10,000 ng/mL): 300,821 RLU and 344,654 RLU
IC50 (infectivity), HIV-1 Antiviral Assay (HeLa-CD4-Bgal cells) (HIV-1 LAI [5]; HIV-1 LAI, 48 hours): 0.03 ng/mL
infection signal still observed (HIV-1 LAI [5]; highest concentrations tested (10 μg/mL)): about 25%
IC50 (infectivity), HIV-1 Antiviral Assay (HIV-1 LAI [6]): 0.009 ng/mL
HIV Infectivity in HeLa CD4 βgal cells (β-galactosidase units) (HIV-1 LAI [6]; 0.0001 ng/mL): 1,159,421 RLU and 1,143,347 RLU
HIV Infectivity in HeLa-CD4-βgal cells (% vehicle) (HIV-1 LAI [6]; 0.0001 ng/mL): 101.4 % vehicle
HIV Infectivity in HeLa-CD4-βgal cells (% vehicle) (HIV-1 LAI [6]; 0.001 ng/mL): 91.9 % vehicle
HIV Infectivity in HeLa CD4 βgal cells (β-galactosidase units) (HIV-1 LAI [6]; 0.01 ng/mL): 729,428 RLU and 754,356 RLU
HIV Infectivity in HeLa-CD4-βgal cells (% vehicle) (HIV-1 LAI [6]; 0.01 ng/mL): 65.2 % vehicle
HIV Infectivity in HeLa CD4 βgal cells (β-galactosidase units) (HIV-1 LAI [6]; 0.1 ng/mL): 505,696 RLU and 431,727 RLU
HIV Infectivity in HeLa-CD4-βgal cells (% vehicle) (HIV-1 LAI [6]; 0.1 ng/mL): 41.1 % vehicle
HIV Infectivity in HeLa CD4 βgal cells (β-galactosidase units) (HIV-1 LAI [6]; 1.0 ng/mL): 338,683 RLU and 353,822 RLU
HIV Infectivity in HeLa-CD4-βgal cells (% vehicle) (HIV-1 LAI [6]; 1.0 ng/mL): 30.3 % vehicle
HIV Infectivity in HeLa CD4 βgal cells (β-galactosidase units) (HIV-1 LAI [6]; 10 ng/mL): 292,575 RLU and 343,225 RLU
HIV Infectivity in HeLa-CD4-βgal cells (% vehicle) (HIV-1 LAI [6]; 10 ng/mL): 27.8 % vehicle
HIV Infectivity in HeLa CD4 βgal cells (β-galactosidase units) (HIV-1 LAI [6]; 100 ng/mL): 289,671 RLU and 320,902 RLU
HIV Infectivity in HeLa-CD4-βgal cells (% vehicle) (HIV-1 LAI [6]; 100 ng/mL): 26.7 % vehicle
HIV Infectivity in HeLa CD4 βgal cells (β-galactosidase units) (HIV-1 LAI [6]; 1,000 ng/mL): 340,382 RLU and 330,715 RLU
HIV Infectivity in HeLa-CD4-βgal cells (% vehicle) (HIV-1 LAI [6]; 1,000 ng/mL): 29.4 % vehicle
HIV Infectivity in HeLa CD4 βgal cells (β-galactosidase units) (HIV-1 LAI [6]; 10,000 ng/mL): 363,841 RLU and 344,014 RLU
HIV Infectivity in HeLa-CD4-βgal cells (% vehicle) (HIV-1 LAI [6]; 10,000 ng/mL): 31.0 % vehicle
inhibition of the cytopathic effect following SARS-CoV-1 infection (SARS-CoV-1 [7]): inhibit the cytopathic effect
inhibition of plaque formation following SARS-CoV-1 infection (SARS-CoV-1 [8]): inhibit the cytopathic effect and plaque formation
HRSV Infectivity in HEp-2 cells (% vehicle) (HRSV Long strain; 0.001 ng/mL): 91.5 % vehicle
HRSV Infectivity in HEp-2 cells - Raw OD- Absorbance (490 nm) (HRSV Long strain; 0.001 ng/mL): 0.647 and 0.675
HRSV Infectivity in HEp-2 cells (% vehicle) (HRSV Long strain; 0.01 ng/mL): 71.3 % vehicle
HRSV Infectivity in HEp-2 cells - Raw OD- Absorbance (490 nm) (HRSV Long strain; 0.01 ng/mL): 0.550 and 0.573
HRSV Infectivity in HEp-2 cells (% vehicle) (HRSV Long strain; 0.1 ng/mL): 27.6 % vehicle
HRSV Infectivity in HEp-2 cells - Raw OD- Absorbance (490 nm) (HRSV Long strain; 0.1 ng/mL): 0.353 and 0.338
HRSV Infectivity in HEp-2 cells (% vehicle) (HRSV Long strain; 1.0 ng/mL): 9.7 % vehicle
HRSV Infectivity in HEp-2 cells - Raw OD- Absorbance (490 nm) (HRSV Long strain; 1.0 ng/mL): 0.244 and 0.270
HRSV Infectivity in HEp-2 cells (% vehicle) (HRSV Long strain; 10 ng/mL): 12.3 % vehicle
HRSV Infectivity in HEp-2 cells - Raw OD- Absorbance (490 nm) (HRSV Long strain; 10 ng/mL): 0.248 and 0.292
HRSV Infectivity in HEp-2 cells (% vehicle) (HRSV Long strain; 100 ng/mL): 11.9 % vehicle
HRSV Infectivity in HEp-2 cells - Raw OD- Absorbance (490 nm) (HRSV Long strain; 100 ng/mL): 0.283 and 0.253
HRSV Infectivity in HEp-2 cells (% vehicle) (HRSV Long strain; 1,000 ng/mL): 9.6 % vehicle
HRSV Infectivity in HEp-2 cells - Raw OD- Absorbance (490 nm) (HRSV Long strain; 1,000 ng/mL): 0.262 and 0.251
HRSV Infectivity in HEp-2 cells (% vehicle) (HRSV Long strain; 10,000 ng/mL): 6.6 % vehicle
HRSV Infectivity in HEp-2 cells - Raw OD- Absorbance (490 nm) (HRSV Long strain; 10,000 ng/mL): 0.252 and 0.230
IC50 (infectivity), HRSV Antiviral Assay (HRSV Long strain; HRSV Long, Hep-2 cells, 3 days): 0.03 ng/mL and 0.027 ng/mL
CC50, Cytotoxicity Assay (Hep-2 cells) (HEp-2 cells [9]): >10000 ng/mL
CC50, Cytotoxicity Assay (uninfected HeLa-CD4-Bgal cells) (HeLa-CD4-βgal cells [10]): >10000 ng/mL
CC50, Cytotoxicity Assay (HeLa-CD4-βgal cells) (HeLa-CD4-βgal cells [3]): >10000 ng/mL
direct activation of natural killer cells (cell clustering) (natural killer cells): very strong direct activation of natural killer cells
inhibition of a plaque assay with human RSV (human RSV): inhibition of a plaque assay with human RSV
effect on HSV1 infection [11]: reduces Herpes Simplex Virus Type 1 (HSV1) infection
suppression of IL-17A synthesis (IL-17A; listed as HYBRID 2): suppression of IL-17A synthesis
suppression of IL-17A synthesis (IL-17A; listed as Hybrid 2): inhibits both 17 A and F very strongly
IC50 for the reduction in cell number [12]: 1.3×10^6 IU/ml
apoptosis response of cells in mono-culture ([12]; SK-OV-3 NucLight Red mono-culture): only a marginal response
EC50 for apoptosis induction ([12]; co-culture model): 1.5×10^6 IU/ml
AUC of apoptosis (caspase 3/7 positive object count over time) ([12]; co-culture model, top dose (3×10^6 IU/ml), 4 days, vehicle controls 200): 1174
AUC values for cell number (red nuclei count over time) ([12]; top dose, vehicle controls 39921): 19501
